According to article PMC4239610, “A Peptide Derived from G0/G1 Switch Gene 2 Acts as Noncompetitive Inhibitor of Adipose Triglyceride Lipase” (The Journal of Biological Chemistry, 2014):

Molecular target: T1, murine adipose triglyceride lipase, Strep fusion (Strep-mATGL) (mouse) (UniProt Q8BJ56)
T1 sequence: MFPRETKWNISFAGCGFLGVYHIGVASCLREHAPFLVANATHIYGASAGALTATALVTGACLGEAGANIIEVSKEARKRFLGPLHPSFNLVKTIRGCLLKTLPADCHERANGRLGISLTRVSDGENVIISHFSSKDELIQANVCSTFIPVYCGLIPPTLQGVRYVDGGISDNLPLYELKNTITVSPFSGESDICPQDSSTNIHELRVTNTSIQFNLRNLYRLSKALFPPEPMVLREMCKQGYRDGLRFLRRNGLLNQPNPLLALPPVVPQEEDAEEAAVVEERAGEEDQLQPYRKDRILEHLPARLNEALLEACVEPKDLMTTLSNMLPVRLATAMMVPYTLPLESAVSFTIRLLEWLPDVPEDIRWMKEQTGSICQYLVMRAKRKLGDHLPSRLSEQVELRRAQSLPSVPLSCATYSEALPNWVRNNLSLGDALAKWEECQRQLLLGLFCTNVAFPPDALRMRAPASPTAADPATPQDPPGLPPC

B1: human G0/G1 switch gene 2 protein, full length (hG0S2) (natural protein)
chain: METVQELIPLAKEMMAQKRKGKMVKLYVLGSVLALFGVVLGLMETVCSPFTAARRLRDQEAAVAELQAALERQALQKQALQEKGKQQDTVLGGRALSNRQHAS
IC50 of inhibition of CGI-58-stimulated mATGL TG hydrolase activity, dose-response with full-length hG0S2: 19 nM
